Data published in publication PMC11408154, “Anti-mutagenic agent targeting LexA to combat antimicrobial resistance in mycobacteria” (The Journal of Biological Chemistry, 2024).

Target: the molecule itself
Experiment: cross-linking; glutaraldehyde cross-linking of Mtb LexA with or without 3-nPBA (protein to inhibitor 1:100); stopped with 25 mM DTT; 12% SDS-PAGE

B1: Mycobacterium tuberculosis LexA (natural protein)
chain: MNDSNDTSVAGGAAGADSRVLSADSALTERQRTILDVIRASVTSRGYPPSIREIGDAVGLTSTSSVAHQLRTLERKGYLRRDPNRPRAVNVRGADDAALPPVTEVAGSDALPEPTFVPVLGRIAAGGPILAEEAVEDVFPLPRELVGEGTLFLLKVIGDSMVEAAICDGDWVVVRQQNVADNGDIVAAMIDGEATVKTFKRAGGQVWLMPHNPAFDPIPGNDATVLGKVVTVIRKV
notes: also called Mtb LexA; WT Mtb LexA
Question: Does B1 bind?
Answer: Result: binds
